Experimental data published in US20110280900A1 (INTERVET INTERNATIONAL B V, published 2011).

Molecular target: the molecule itself
Experiment: immunoblot after non-denaturing gel; only the 65 kDa band detected

B1: Clostridium chauvoei toxin A (CctA), native secreted toxin in C. chauvoei culture supernatants (other)
chain: QENTCIVETPSEGVKTFTSSDTAYADYNCFKTNLSVTFIEDQHNNQLTALVSTEGSFIPSGLSRVGGYYQADMYWPSKYYTTLTTYDRNNRVKITKSIPTNQIDTVSVSETMGYSIGGSLSIEYGKEGPKAGGGINGSYTAQRSVTYDQPDYRTLLMKDSVNSASWEVAFNATKDGYDRDSYHGIYGNQLFMRYRLYNTGINNLTTDNNLSSLIVGGFSPKVVIALTAPKGTEESTVKVEYNRFNDQYRLRWSGTEWYGENNRNSRIDSSSESFILNWKNHTVEHAGY
notes: also called CctA toxin; mature CctA
binding result: binds
